The text below walks through data of patent US9284543B2, “Neutral active soluble truncated PH20 polypeptides and uses thereof” (Halozyme, Inc., priority 2008, dated 2016).

A short description of data set [1]: Microtiter hyaluronidase activity assay with biotinylated-hyaluronic acid. Format: biochemical. The following applies: Table 6, 72 hour post transfection supernatant.
The test system of the next data set is CHO-S cells. Description: Western blot analysis of PH20 expression in media and cells after transient expression. Format: cell-based, Chinese Hamster. Conditions: media versus cells. A digest of the protocol: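 CHO-S cells were transiently transfected with mutant PH20-HZ24 plasmids using GeneJuice and expressed for 48-72 h at 37 °C, 5% CO2. Media and cells were harvested separately, with PI-PLC treatment used to release GPI-anchored protein. Non-reduced samples were blotted with rabbit anti-PH20 (0.5 μg/mL), and a band near 66 kDa was scored as PH20.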

B1: SPAM1-METE: C-terminally truncated human PH20, precursor 476 aa (SEQ ID NO:24), mature 441 aa (SEQ ID NO:76) (protein, listed as Homo sapiens)
chain 1: MGVLKFKHIFFRSFVKSSGVSQIVFTFLLIPCCLTLNFRAPPVIPNVPFLWAWNAPSEFCLGKFDEPLDMSLFSFIGSPRINATGQGVTIFYVDRLGYYPYIDSITGVTVNGGIPQKISLQDHLDKAKKDITFYMPVDNLGMAVIDWEEWRPTWARNWKPKDVYKNRSIELVQQQNVQLSLTEATEKAKQEFEKAGKDFLVETIKLGKLLRPNHLWGYYLFPDCYNHHYKKPGYNGSCFNVEIKRNDDLSWLWNESTALYPSIYLNTQQSPVAATLYVRNRVREAIRVSKIPDAKSPLPVFAYTRIVFTDQVLKFLSQDELVYTFGETVALGASGIVIWGTLSIMRSMKSCLLLDNYMETILNPYIINVTLAAKMCSQVLCQEQGVCIRKNWNSSDYLHLNPDNFAIQLEKGGKFTVRGKPTLEDLEQFSEKFYCSCYSTLSCKEKADVKDTDAVDVCIADGVCIDAFLKPPMETE
chain 2: LNFRAPPVIPNVPFLWAWNAPSEFCLGKFDEPLDMSLFSFIGSPRINATGQGVTIFYVDRLGYYPYIDSITGVTVNGGIPQKISLQDHLDKAKKDITFYMPVDNLGMAVIDWEEWRPTWARNWKPKDVYKNRSIELVQQQNVQLSLTEATEKAKQEFEKAGKDFLVETIKLGKLLRPNHLWGYYLFPDCYNHHYKKPGYNGSCFNVEIKRNDDLSWLWNESTALYPSIYLNTQQSPVAATLYVRNRVREAIRVSKIPDAKSPLPVFAYTRIVFTDQVLKFLSQDELVYTFGETVALGASGIVIWGTLSIMRSMKSCLLLDNYMETILNPYIINVTLAAKMCSQVLCQEQGVCIRKNWNSSDYLHLNPDNFAIQLEKGGKFTVRGKPTLEDLEQFSEKFYCSCYSTLSCKEKADVKDTDAVDVCIADGVCIDAFLKPPMETE
modifications: HuPH20 precursor 1-476; Mature HuPH20 36-476
For the molecule B1, in data set [1], the “pH 5.5 Activity” value was 1.278 Units/ml and the “pH 7.4 Activity” value came out at 1.332 Units/ml. Also, the “Expressed in Media” value in the data set with CHO-S cells was “YES”.

B2: SPAM1-PPME: C-terminally truncated human PH20, precursor 474 aa (SEQ ID NO:26), mature 439 aa (SEQ ID NO:78) (protein, listed as Homo sapiens)
chain 1: MGVLKFKHIFFRSFVKSSGVSQIVFTFLLIPCCLTLNFRAPPVIPNVPFLWAWNAPSEFCLGKFDEPLDMSLFSFIGSPRINATGQGVTIFYVDRLGYYPYIDSITGVTVNGGIPQKISLQDHLDKAKKDITFYMPVDNLGMAVIDWEEWRPTWARNWKPKDVYKNRSIELVQQQNVQLSLTEATEKAKQEFEKAGKDFLVETIKLGKLLRPNHLWGYYLFPDCYNHHYKKPGYNGSCFNVEIKRNDDLSWLWNESTALYPSIYLNTQQSPVAATLYVRNRVREAIRVSKIPDAKSPLPVFAYTRIVFTDQVLKFLSQDELVYTFGETVALGASGIVIWGTLSIMRSMKSCLLLDNYMETILNPYIINVTLAAKMCSQVLCQEQGVCIRKNWNSSDYLHLNPDNFAIQLEKGGKFTVRGKPTLEDLEQFSEKFYCSCYSTLSCKEKADVKDTDAVDVCIADGVCIDAFLKPPME
chain 2: LNFRAPPVIPNVPFLWAWNAPSEFCLGKFDEPLDMSLFSFIGSPRINATGQGVTIFYVDRLGYYPYIDSITGVTVNGGIPQKISLQDHLDKAKKDITFYMPVDNLGMAVIDWEEWRPTWARNWKPKDVYKNRSIELVQQQNVQLSLTEATEKAKQEFEKAGKDFLVETIKLGKLLRPNHLWGYYLFPDCYNHHYKKPGYNGSCFNVEIKRNDDLSWLWNESTALYPSIYLNTQQSPVAATLYVRNRVREAIRVSKIPDAKSPLPVFAYTRIVFTDQVLKFLSQDELVYTFGETVALGASGIVIWGTLSIMRSMKSCLLLDNYMETILNPYIINVTLAAKMCSQVLCQEQGVCIRKNWNSSDYLHLNPDNFAIQLEKGGKFTVRGKPTLEDLEQFSEKFYCSCYSTLSCKEKADVKDTDAVDVCIADGVCIDAFLKPPME
modifications: HuPH20 precursor 1-474; Mature HuPH20 36-474
For the molecule B2, in data set [1], the “pH 5.5 Activity” value is given as 1.341 Units/ml and the “pH 7.4 Activity” value was 1.2105 Units/ml. Also, in the data set on CHO-S cells, the “Expressed in Media” value was “YES”.

B3: SPAM1-ETEE: C-terminally truncated human PH20, precursor 477 aa (SEQ ID NO:23), mature 442 aa (SEQ ID NO:75) (protein, listed as Homo sapiens)
chain 1: MGVLKFKHIFFRSFVKSSGVSQIVFTFLLIPCCLTLNFRAPPVIPNVPFLWAWNAPSEFCLGKFDEPLDMSLFSFIGSPRINATGQGVTIFYVDRLGYYPYIDSITGVTVNGGIPQKISLQDHLDKAKKDITFYMPVDNLGMAVIDWEEWRPTWARNWKPKDVYKNRSIELVQQQNVQLSLTEATEKAKQEFEKAGKDFLVETIKLGKLLRPNHLWGYYLFPDCYNHHYKKPGYNGSCFNVEIKRNDDLSWLWNESTALYPSIYLNTQQSPVAATLYVRNRVREAIRVSKIPDAKSPLPVFAYTRIVFTDQVLKFLSQDELVYTFGETVALGASGIVIWGTLSIMRSMKSCLLLDNYMETILNPYIINVTLAAKMCSQVLCQEQGVCIRKNWNSSDYLHLNPDNFAIQLEKGGKFTVRGKPTLEDLEQFSEKFYCSCYSTLSCKEKADVKDTDAVDVCIADGVCIDAFLKPPMETEE
chain 2: LNFRAPPVIPNVPFLWAWNAPSEFCLGKFDEPLDMSLFSFIGSPRINATGQGVTIFYVDRLGYYPYIDSITGVTVNGGIPQKISLQDHLDKAKKDITFYMPVDNLGMAVIDWEEWRPTWARNWKPKDVYKNRSIELVQQQNVQLSLTEATEKAKQEFEKAGKDFLVETIKLGKLLRPNHLWGYYLFPDCYNHHYKKPGYNGSCFNVEIKRNDDLSWLWNESTALYPSIYLNTQQSPVAATLYVRNRVREAIRVSKIPDAKSPLPVFAYTRIVFTDQVLKFLSQDELVYTFGETVALGASGIVIWGTLSIMRSMKSCLLLDNYMETILNPYIINVTLAAKMCSQVLCQEQGVCIRKNWNSSDYLHLNPDNFAIQLEKGGKFTVRGKPTLEDLEQFSEKFYCSCYSTLSCKEKADVKDTDAVDVCIADGVCIDAFLKPPMETEE
modifications: HuPH20 precursor 1-477; Mature HuPH20 36-477
Consider B3, for which, in data set [1], the “pH 5.5 Activity” value was determined as 2.0475 Units/ml and the “pH 7.4 Activity” value stood at 2.088 Units/ml. For the same molecule, in the data set with CHO-S cells, the “Expressed in Media” value is “YES”.

B4: SPAM1-TEEP: C-terminally truncated human PH20, precursor 478 aa (SEQ ID NO:22), mature 443 aa (SEQ ID NO:74) (protein, listed as Homo sapiens)
chain 1: MGVLKFKHIFFRSFVKSSGVSQIVFTFLLIPCCLTLNFRAPPVIPNVPFLWAWNAPSEFCLGKFDEPLDMSLFSFIGSPRINATGQGVTIFYVDRLGYYPYIDSITGVTVNGGIPQKISLQDHLDKAKKDITFYMPVDNLGMAVIDWEEWRPTWARNWKPKDVYKNRSIELVQQQNVQLSLTEATEKAKQEFEKAGKDFLVETIKLGKLLRPNHLWGYYLFPDCYNHHYKKPGYNGSCFNVEIKRNDDLSWLWNESTALYPSIYLNTQQSPVAATLYVRNRVREAIRVSKIPDAKSPLPVFAYTRIVFTDQVLKFLSQDELVYTFGETVALGASGIVIWGTLSIMRSMKSCLLLDNYMETILNPYIINVTLAAKMCSQVLCQEQGVCIRKNWNSSDYLHLNPDNFAIQLEKGGKFTVRGKPTLEDLEQFSEKFYCSCYSTLSCKEKADVKDTDAVDVCIADGVCIDAFLKPPMETEEP
chain 2: LNFRAPPVIPNVPFLWAWNAPSEFCLGKFDEPLDMSLFSFIGSPRINATGQGVTIFYVDRLGYYPYIDSITGVTVNGGIPQKISLQDHLDKAKKDITFYMPVDNLGMAVIDWEEWRPTWARNWKPKDVYKNRSIELVQQQNVQLSLTEATEKAKQEFEKAGKDFLVETIKLGKLLRPNHLWGYYLFPDCYNHHYKKPGYNGSCFNVEIKRNDDLSWLWNESTALYPSIYLNTQQSPVAATLYVRNRVREAIRVSKIPDAKSPLPVFAYTRIVFTDQVLKFLSQDELVYTFGETVALGASGIVIWGTLSIMRSMKSCLLLDNYMETILNPYIINVTLAAKMCSQVLCQEQGVCIRKNWNSSDYLHLNPDNFAIQLEKGGKFTVRGKPTLEDLEQFSEKFYCSCYSTLSCKEKADVKDTDAVDVCIADGVCIDAFLKPPMETEEP
modifications: HuPH20 precursor 1-478; Mature HuPH20 36-478
In the case of B4, in data set [1], the “pH 5.5 Activity” value was found to be 1.584 Units/ml and the “pH 7.4 Activity” value came to 1.764 Units/ml. Further, the “Expressed in Media” value in the data set on CHO-S cells was “YES”.

B5: SPAM1-PMET: C-terminally truncated human PH20, precursor 475 aa (SEQ ID NO:25), mature 440 aa (SEQ ID NO:77) (protein, listed as Homo sapiens)
chain 1: MGVLKFKHIFFRSFVKSSGVSQIVFTFLLIPCCLTLNFRAPPVIPNVPFLWAWNAPSEFCLGKFDEPLDMSLFSFIGSPRINATGQGVTIFYVDRLGYYPYIDSITGVTVNGGIPQKISLQDHLDKAKKDITFYMPVDNLGMAVIDWEEWRPTWARNWKPKDVYKNRSIELVQQQNVQLSLTEATEKAKQEFEKAGKDFLVETIKLGKLLRPNHLWGYYLFPDCYNHHYKKPGYNGSCFNVEIKRNDDLSWLWNESTALYPSIYLNTQQSPVAATLYVRNRVREAIRVSKIPDAKSPLPVFAYTRIVFTDQVLKFLSQDELVYTFGETVALGASGIVIWGTLSIMRSMKSCLLLDNYMETILNPYIINVTLAAKMCSQVLCQEQGVCIRKNWNSSDYLHLNPDNFAIQLEKGGKFTVRGKPTLEDLEQFSEKFYCSCYSTLSCKEKADVKDTDAVDVCIADGVCIDAFLKPPMET
chain 2: LNFRAPPVIPNVPFLWAWNAPSEFCLGKFDEPLDMSLFSFIGSPRINATGQGVTIFYVDRLGYYPYIDSITGVTVNGGIPQKISLQDHLDKAKKDITFYMPVDNLGMAVIDWEEWRPTWARNWKPKDVYKNRSIELVQQQNVQLSLTEATEKAKQEFEKAGKDFLVETIKLGKLLRPNHLWGYYLFPDCYNHHYKKPGYNGSCFNVEIKRNDDLSWLWNESTALYPSIYLNTQQSPVAATLYVRNRVREAIRVSKIPDAKSPLPVFAYTRIVFTDQVLKFLSQDELVYTFGETVALGASGIVIWGTLSIMRSMKSCLLLDNYMETILNPYIINVTLAAKMCSQVLCQEQGVCIRKNWNSSDYLHLNPDNFAIQLEKGGKFTVRGKPTLEDLEQFSEKFYCSCYSTLSCKEKADVKDTDAVDVCIADGVCIDAFLKPPMET
modifications: HuPH20 precursor 1-475; Mature HuPH20 36-475
Turning to B5, in data set [1], the “pH 5.5 Activity” value is listed as 2.0925 Units/ml and the “pH 7.4 Activity” value was found to be 2.223 Units/ml. In the data set with CHO-S cells, the “Expressed in Media” value is listed as “YES”.
